Experimental data: the supplement of paper PMC9112550, “Optimization of the antimicrobial peptide Bac7 by deep mutational scanning” (BMC Biology, 2022)

Tested on: Escherichia coli TOP10
Assay: shrunken log2 fold change of peptide-encoding DNA abundance (4.5 h post-induction vs induction); higher = less antimicrobial activity (less host growth inhibition)
Details: time post-induction: 4.5 h; library: site-saturation at positions 5, 18, 19, 20
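Also: peptides expressed intracellularly from a pBAD plasmid library in pooled LB shake-flask culture, induced with 0.3% L-arabinose, DNA abundance read by NGS, three biological replicates, DESeq2 with apeglm shrinkage.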

With RRIRSRPPRLPRPRPRPPAIPRP the “shrunken log2 fold change” value was 0.413.

For RRIRQRPPRLPRPRPRPMGGPRP, the “shrunken log2 fold change” value was 0.0922.

In the case of RRIRDRPPRLPRPRPRPQHPPRP, the “shrunken log2 fold change” value is reported as -0.00435.

In the case of RRIRNRPPRLPRPRPRPDASPRP, the “shrunken log2 fold change” value is reported as 0.14.

RRIRSRPPRLPRPRPRPQHQPRP was tested, and the “shrunken log2 fold change” value was -0.0399.

For RRIRVRPPRLPRPRPRPCDWPRP, the “shrunken log2 fold change” value was 0.192.

RRIRQRPPRLPRPRPRPKNKPRP was tested, and the “shrunken log2 fold change” value was -0.29.

For RRIRDRPPRLPRPRPRPEAFPRP, the “shrunken log2 fold change” value was 0.119.

For RRIRARPPRLPRPRPRPCCFPRP, the “shrunken log2 fold change” value was 0.274.

For RRIRERPPRLPRPRPRPDIQPRP, the “shrunken log2 fold change” value was 3.69.

With RRIRRRPPRLPRPRPRPGRSPRP the “shrunken log2 fold change” value was -0.104.

For RRIRNRPPRLPRPRPRPTTHPRP, the “shrunken log2 fold change” value was 0.102.

RRIRIRPPRLPRPRPRPKHLPRP was tested, and the “shrunken log2 fold change” value was -0.137.

For RRIRARPPRLPRPRPRPYSFPRP, the “shrunken log2 fold change” value was -0.0794.

For RRIRCRPPRLPRPRPRPVSYPRP, the “shrunken log2 fold change” value was 0.0707.

With RRIRGRPPRLPRPRPRPKKKPRP the “shrunken log2 fold change” value was 0.354.

RRIRCRPPRLPRPRPRPWKTPRP was tested, and the “shrunken log2 fold change” value was -0.152.

In the case of RRIRFRPPRLPRPRPRPVTAPRP, the “shrunken log2 fold change” value is reported as -0.0836.

With RRIRFRPPRLPRPRPRPDYRPRP the “shrunken log2 fold change” value was -0.0359.

In the case of RRIRWRPPRLPRPRPRPMLWPRP, the “shrunken log2 fold change” value is reported as 0.0929.

For RRIRLRPPRLPRPRPRPNWWPRP, the “shrunken log2 fold change” value was 0.117.

In the case of RRIRIRPPRLPRPRPRPCGIPRP, the “shrunken log2 fold change” value is reported as -0.222.

With RRIRPRPPRLPRPRPRPFWGPRP the “shrunken log2 fold change” value was -0.0925.

RRIRNRPPRLPRPRPRPRHSPRP was tested, and the “shrunken log2 fold change” value was -0.424.

In the case of RRIRVRPPRLPRPRPRPLGTPRP, the “shrunken log2 fold change” value is reported as 0.188.

For RRIRWRPPRLPRPRPRPLKLPRP, the “shrunken log2 fold change” value was -0.225.

RRIRKRPPRLPRPRPRPWVIPRP was tested, and the “shrunken log2 fold change” value was -0.182.

In the case of RRIRHRPPRLPRPRPRPRSEPRP, the “shrunken log2 fold change” value is reported as 0.117.

With RRIRGRPPRLPRPRPRPNEFPRP the “shrunken log2 fold change” value was 0.141.

In the case of RRIRSRPPRLPRPRPRPQWIPRP, the “shrunken log2 fold change” value is reported as -0.425.

RRIRIRPPRLPRPRPRPFHPPRP was tested, and the “shrunken log2 fold change” value was -0.111.

With RRIRNRPPRLPRPRPRPDLPPRP the “shrunken log2 fold change” value was -0.221.

For RRIRCRPPRLPRPRPRPFFIPRP, the “shrunken log2 fold change” value was -0.484.

For RRIRQRPPRLPRPRPRPYRRPRP, the “shrunken log2 fold change” value was 0.0231.

With RRIRMRPPRLPRPRPRPIESPRP the “shrunken log2 fold change” value was 0.000778.

For RRIRKRPPRLPRPRPRPKDAPRP, the “shrunken log2 fold change” value was -0.0585.

In the case of RRIRTRPPRLPRPRPRPPHGPRP, the “shrunken log2 fold change” value is reported as -0.228.

In the case of RRIRPRPPRLPRPRPRPTHMPRP, the “shrunken log2 fold change” value is reported as 0.255.

For RRIRWRPPRLPRPRPRPRTHPRP, the “shrunken log2 fold change” value was 0.0534.

With RRIRMRPPRLPRPRPRPYLPPRP the “shrunken log2 fold change” value was -0.78.

In the case of RRIRDRPPRLPRPRPRPDPAPRP, the “shrunken log2 fold change” value is reported as 0.304.

In the case of RRIRHRPPRLPRPRPRPQKCPRP, the “shrunken log2 fold change” value is reported as -0.0302.

With RRIRSRPPRLPRPRPRPCGDPRP the “shrunken log2 fold change” value was -0.0559.

For RRIRIRPPRLPRPRPRPWCQPRP, the “shrunken log2 fold change” value was -0.339.

With RRIRPRPPRLPRPRPRPRVQPRP the “shrunken log2 fold change” value was 0.398.

RRIRCRPPRLPRPRPRPHRIPRP was tested, and the “shrunken log2 fold change” value was -0.492.

For RRIRLRPPRLPRPRPRPETAPRP, the “shrunken log2 fold change” value was 0.325.

With RRIRIRPPRLPRPRPRPFHAPRP the “shrunken log2 fold change” value was -0.388.

For RRIRTRPPRLPRPRPRPFNLPRP, the “shrunken log2 fold change” value was -0.336.

In the case of RRIRIRPPRLPRPRPRPLVDPRP, the “shrunken log2 fold change” value is reported as 0.126.

With RRIRSRPPRLPRPRPRPEIKPRP the “shrunken log2 fold change” value was 0.104.

RRIRERPPRLPRPRPRPWYAPRP was tested, and the “shrunken log2 fold change” value was -0.137.

In the case of RRIRRRPPRLPRPRPRPSIDPRP, the “shrunken log2 fold change” value is reported as -0.107.

In the case of RRIRPRPPRLPRPRPRPDTYPRP, the “shrunken log2 fold change” value is reported as -0.623.

For RRIRERPPRLPRPRPRPWCFPRP, the “shrunken log2 fold change” value was -0.161.

RRIRGRPPRLPRPRPRPDELPRP was tested, and the “shrunken log2 fold change” value was 0.955.

In the case of RRIRWRPPRLPRPRPRPIFSPRP, the “shrunken log2 fold change” value is reported as 0.0085.

For RRIRQRPPRLPRPRPRPEIFPRP, the “shrunken log2 fold change” value was 0.127.

With RRIRARPPRLPRPRPRPRLMPRP the “shrunken log2 fold change” value was 0.216.

In the case of RRIRGRPPRLPRPRPRPIPHPRP, the “shrunken log2 fold change” value is reported as 0.196.

With RRIRPRPPRLPRPRPRPRPLPRP the “shrunken log2 fold change” value was 0.627.

RRIRCRPPRLPRPRPRPEGDPRP was tested, and the “shrunken log2 fold change” value was 0.193.

With RRIRERPPRLPRPRPRPTAFPRP the “shrunken log2 fold change” value was -0.16.

For RRIRWRPPRLPRPRPRPQTDPRP, the “shrunken log2 fold change” value was 0.236.

RRIRPRPPRLPRPRPRPMMMPRP was tested, and the “shrunken log2 fold change” value was -0.167.

For RRIRFRPPRLPRPRPRPSGTPRP, the “shrunken log2 fold change” value was -0.0628.

For RRIRGRPPRLPRPRPRPSHRPRP, the “shrunken log2 fold change” value was -0.0458.

In the case of RRIRHRPPRLPRPRPRPFDMPRP, the “shrunken log2 fold change” value is reported as -0.00783.

In the case of RRIRPRPPRLPRPRPRPNLLPRP, the “shrunken log2 fold change” value is reported as 0.0634.

With RRIRRRPPRLPRPRPRPRQAPRP the “shrunken log2 fold change” value was 0.801.

In the case of RRIRWRPPRLPRPRPRPFHCPRP, the “shrunken log2 fold change” value is reported as -0.026.

In the case of RRIRRRPPRLPRPRPRPWHAPRP, the “shrunken log2 fold change” value is reported as 0.279.

With RRIRHRPPRLPRPRPRPARVPRP the “shrunken log2 fold change” value was 0.502.

RRIRWRPPRLPRPRPRPITCPRP was tested, and the “shrunken log2 fold change” value was -0.0627.

For RRIRARPPRLPRPRPRPYQYPRP, the “shrunken log2 fold change” value was -0.352.

For RRIRFRPPRLPRPRPRPLHHPRP, the “shrunken log2 fold change” value was -0.434.

In the case of RRIRDRPPRLPRPRPRPERKPRP, the “shrunken log2 fold change” value is reported as 0.0234.

For RRIRPRPPRLPRPRPRPDNRPRP, the “shrunken log2 fold change” value was 0.0191.

RRIRNRPPRLPRPRPRPVTVPRP was tested, and the “shrunken log2 fold change” value was -0.404.

For RRIRYRPPRLPRPRPRPGFSPRP, the “shrunken log2 fold change” value was -0.0944.

With RRIRYRPPRLPRPRPRPISSPRP the “shrunken log2 fold change” value was -0.262.

For RRIRYRPPRLPRPRPRPRWWPRP, the “shrunken log2 fold change” value was 0.189.

With RRIRLRPPRLPRPRPRPIMVPRP the “shrunken log2 fold change” value was -0.117.

RRIRNRPPRLPRPRPRPYLCPRP was tested, and the “shrunken log2 fold change” value was -0.0174.

In the case of RRIRTRPPRLPRPRPRPRTHPRP, the “shrunken log2 fold change” value is reported as -0.0753.

For RRIRCRPPRLPRPRPRPMNYPRP, the “shrunken log2 fold change” value was -0.226.

For RRIRKRPPRLPRPRPRPMWTPRP, the “shrunken log2 fold change” value was 0.151.

RRIRKRPPRLPRPRPRPCSIPRP was tested, and the “shrunken log2 fold change” value was 0.11.

With RRIRPRPPRLPRPRPRPRERPRP the “shrunken log2 fold change” value was 0.121.

RRIRVRPPRLPRPRPRPQAWPRP was tested, and the “shrunken log2 fold change” value was 0.416.

RRIRCRPPRLPRPRPRPECTPRP was tested, and the “shrunken log2 fold change” value was -0.0491.

In the case of RRIRQRPPRLPRPRPRPIWHPRP, the “shrunken log2 fold change” value is reported as -0.204.

For RRIRDRPPRLPRPRPRPKIYPRP, the “shrunken log2 fold change” value was -0.684.

RRIRERPPRLPRPRPRPFQRPRP was tested, and the “shrunken log2 fold change” value was -0.0653.

RRIRRRPPRLPRPRPRPKRCPRP was tested, and the “shrunken log2 fold change” value was -0.131.

RRIRMRPPRLPRPRPRPNNCPRP was tested, and the “shrunken log2 fold change” value was -0.167.

RRIRKRPPRLPRPRPRPVLGPRP was tested, and the “shrunken log2 fold change” value was 0.977.

In the case of RRIRVRPPRLPRPRPRPYFRPRP, the “shrunken log2 fold change” value is reported as -0.153.

In the case of RRIRIRPPRLPRPRPRPTLSPRP, the “shrunken log2 fold change” value is reported as -0.0751.

For RRIRSRPPRLPRPRPRPVAFPRP, the “shrunken log2 fold change” value was 0.0876.

RRIRMRPPRLPRPRPRPLQPPRP was tested, and the “shrunken log2 fold change” value was 0.737.

RRIRKRPPRLPRPRPRPLPAPRP was tested, and the “shrunken log2 fold change” value was 1.13.

In the case of RRIRFRPPRLPRPRPRPQLRPRP, the “shrunken log2 fold change” value is reported as 0.0318.

With RRIRNRPPRLPRPRPRPGKQPRP the “shrunken log2 fold change” value was -0.406.

For RRIRNRPPRLPRPRPRPAWYPRP, the “shrunken log2 fold change” value was -0.178.

For RRIRVRPPRLPRPRPRPYWMPRP, the “shrunken log2 fold change” value was -0.227.

With RRIRCRPPRLPRPRPRPALRPRP the “shrunken log2 fold change” value was 0.457.

In the case of RRIRERPPRLPRPRPRPKHNPRP, the “shrunken log2 fold change” value is reported as -0.587.

For RRIRCRPPRLPRPRPRPGRKPRP, the “shrunken log2 fold change” value was 0.0644.

For RRIRPRPPRLPRPRPRPSVYPRP, the “shrunken log2 fold change” value was -0.361.

RRIRQRPPRLPRPRPRPSKVPRP was tested, and the “shrunken log2 fold change” value was -0.133.

RRIRNRPPRLPRPRPRPEVCPRP was tested, and the “shrunken log2 fold change” value was -0.049.

RRIRGRPPRLPRPRPRPMHGPRP was tested, and the “shrunken log2 fold change” value was 0.36.

For RRIRWRPPRLPRPRPRPHHRPRP, the “shrunken log2 fold change” value was -0.214.

With RRIRNRPPRLPRPRPRPDVNPRP the “shrunken log2 fold change” value was -0.00804.

RRIRYRPPRLPRPRPRPCILPRP was tested, and the “shrunken log2 fold change” value was 0.00867.

RRIRIRPPRLPRPRPRPSTQPRP was tested, and the “shrunken log2 fold change” value was -0.0353.

For RRIRCRPPRLPRPRPRPETYPRP, the “shrunken log2 fold change” value was -0.34.

In the case of RRIRSRPPRLPRPRPRPADAPRP, the “shrunken log2 fold change” value is reported as 0.0403.

For RRIRFRPPRLPRPRPRPYWFPRP, the “shrunken log2 fold change” value was -0.0527.

For RRIRLRPPRLPRPRPRPQNLPRP, the “shrunken log2 fold change” value was -0.149.

For RRIRIRPPRLPRPRPRPTYFPRP, the “shrunken log2 fold change” value was -0.522.

In the case of RRIRVRPPRLPRPRPRPNHDPRP, the “shrunken log2 fold change” value is reported as -0.369.

RRIRMRPPRLPRPRPRPNPHPRP was tested, and the “shrunken log2 fold change” value was 0.269.

With RRIRSRPPRLPRPRPRPPTFPRP the “shrunken log2 fold change” value was -0.0599.
